Bridge positions count the residues as written; N and C are the ends. Square brackets hold non-standard residues; d marks the D form. Ends that are not written are not given here. * marks the point of attachment. Acetyl(2-(4-imidazolyl)) = O=C(Cc1c[nH]cn1)*; Aib = CC(C)(N)C(=O)O
What was measured:
Test in all cases: cell-based or functional assay
human GLP-1 receptor = human GLP-1 receptor (human, UniProt P43220 24-463)
human GCG receptor = human GCG receptor (human, UniProt P47871 26-477)
human GIP receptor = target: T1, human GIP receptor (human, UniProt P48546 22-466)
T1 sequence (looked up): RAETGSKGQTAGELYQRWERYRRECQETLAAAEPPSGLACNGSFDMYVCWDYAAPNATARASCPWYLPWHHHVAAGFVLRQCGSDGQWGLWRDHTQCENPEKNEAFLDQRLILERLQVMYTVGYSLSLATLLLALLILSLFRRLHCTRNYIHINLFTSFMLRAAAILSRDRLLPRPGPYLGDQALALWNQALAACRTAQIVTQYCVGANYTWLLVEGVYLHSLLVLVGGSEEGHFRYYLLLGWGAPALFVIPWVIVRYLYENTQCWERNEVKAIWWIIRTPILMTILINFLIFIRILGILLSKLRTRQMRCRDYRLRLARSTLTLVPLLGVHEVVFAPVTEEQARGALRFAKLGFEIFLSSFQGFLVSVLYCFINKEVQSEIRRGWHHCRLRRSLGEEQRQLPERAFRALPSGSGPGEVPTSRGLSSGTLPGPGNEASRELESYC

human GCG receptor, sequence (P47871 26-477): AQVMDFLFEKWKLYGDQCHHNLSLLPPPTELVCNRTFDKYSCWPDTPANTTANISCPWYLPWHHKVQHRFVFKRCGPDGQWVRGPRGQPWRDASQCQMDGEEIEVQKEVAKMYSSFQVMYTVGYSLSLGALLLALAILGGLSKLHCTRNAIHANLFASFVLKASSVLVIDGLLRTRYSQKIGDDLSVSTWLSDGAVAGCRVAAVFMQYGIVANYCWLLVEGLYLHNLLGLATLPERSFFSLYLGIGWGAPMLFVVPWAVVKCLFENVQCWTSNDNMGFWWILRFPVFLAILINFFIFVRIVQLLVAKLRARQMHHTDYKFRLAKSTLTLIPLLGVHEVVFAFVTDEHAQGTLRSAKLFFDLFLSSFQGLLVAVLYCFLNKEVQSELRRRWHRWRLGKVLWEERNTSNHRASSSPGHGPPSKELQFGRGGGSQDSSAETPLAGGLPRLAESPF

| Binder | In vitro activity (%) compared with native peptide, vs GLP-1 (human GLP-1 receptor) | In vitro activity (%) compared with native peptide, vs Glucagon (human GCG receptor) | In vitro activity (%) compared with native peptide, vs GIP (human GIP receptor) |
| --- | --- | --- | --- |
| [Acetyl(2-(4-imidazolyl))][Aib]QGTFTSDYSIAMDEIHQKDFVNWLLAQC (bridge 16-20; not fully specified) [triple agonist of SEQ ID NO: 85] | 4.3% | < 0.1% | 0.3% |
| Y[Aib]QGTFTSDYSKALDEKAAKDFVNWLLDHHPSSGQPPPSC (bridge 16-20) [triple agonist of SEQ ID NO: 99] | 20.9% | 14.9% | 57.7% |
| {Acetyl(2-(4-imidazolyl))}-[Aib]QGTFTSDYSIAMDEIHQKDFVNWLLNTKC (bridge 15-19; numbers in words are those of the source; also: ring between positions 16 and 20, type not given here) [triple agonist of SEQ ID NO: 94] | 0.5% | < 0.1% | < 0.1% |
| Y[Aib]QGTFTSDYSKALDEKAAKDFVNWLLDQHPSSGQPPPSC (bridge 16-20) [triple agonist of SEQ ID NO: 102] | 23.3% | 29.5% | 58% |
| Y[Aib]QGTFTSDYSKYLDEKRAKEFVQWLLDCHPSSGQPPPS (bridge 16-20) [triple agonist of SEQ ID NO: 97] | 10.5% | 62.8% | 2.6% |
| Y[Aib]QGTFTSDYSKYLDEKRAKEFVQWLLCHHPSSGQPPPS (bridge 16-20) [triple agonist of SEQ ID NO: 95] | 2.1% | 0.4% | < 0.1% |
| {Acetyl(2-(4-imidazolyl))}-[Aib]EGTFTSDYSIAMDEIHQKDFVDWLLAEKC (bridge 15-19; numbers in words are those of the source; also: ring between positions 16 and 20, type not given here) [triple agonist of SEQ ID NO: 91] | 31.9% | 16.8% | 0.3% |
| {Acetyl(2-(4-imidazolyl))}-[Aib]QGTFTSDYSIAMDEIHQKDFVNWLLNTC (bridge 15-19; numbers in words are those of the source; also: ring between positions 16 and 20, type not given here) [triple agonist of SEQ ID NO: 87] | 0.9% | < 0.1% | < 0.1% |
| Y[Aib]QGTFTSDYSKYLDEKRAKEFVQWLLDHCPSSGQPPPS (bridge 16-20) [triple agonist of SEQ ID NO: 96] | 34.4% | 195% | 5.2% |
| {Acetyl(2-(4-imidazolyl))}-[Aib]QGTFTSDYSKYLDEKRQKEFVQWLLDTKC (bridge 15-19; numbers in words are those of the source; also: ring between positions 16 and 20, type not given here) [triple agonist of SEQ ID NO: 89] | 7.1% | 0.7% | < 0.1% |
| {Acetyl(2-(4-imidazolyl))}-[Aib]QGTFTSDYSKYLDEKRQKEFVNWLLAQKC (bridge 15-19; numbers in words are those of the source; also: ring between positions 16 and 20, type not given here) [triple agonist of SEQ ID NO: 93] | 5.7% | 0.3% | 0.7% |
| [Acetyl(2-(4-imidazolyl))][Aib]QGTFTSDYSIAMDEIHQKDFVNWLLAQKC (bridge 16-20; not fully specified) [triple agonist of SEQ ID NO: 92] | 0.8% | < 0.1% | 0.4% |
| {Acetyl(2-(4-imidazolyl))}-[Aib]QGTFTSDYSKYLDEKRQKEFVNWLLAQC (bridge 15-19; numbers in words are those of the source; also: ring between positions 16 and 20, type not given here) [triple agonist of SEQ ID NO: 86] | 28.4% | 0.4% | 0.2% |
| {Acetyl(2-(4-imidazolyl))}-[Aib]QGTFTSDYSKYLDEKRQKEFVQWLLNTKC (bridge 15-19; numbers in words are those of the source; also: ring between positions 16 and 20, type not given here) [triple agonist of SEQ ID NO: 88] | 9.6% | 0.3% | < 0.1% |
| {Acetyl(2-(4-imidazolyl))}-[Aib]EGTFTSDYSIAMDEIHQKDFVDWLLAEC (bridge 15-19; numbers in words are those of the source; also: ring between positions 16 and 20, type not given here) [triple agonist of SEQ ID NO: 84] | 4.2% | < 0.1% | < 0.1% |
| Y[Aib]QGTFTSDYSKALDEKAAKEFVNWLLDHHPSSGQPPPSC (bridge 16-20) [triple agonist of SEQ ID NO: 98] | 28.1% | 8.2% | 47.1% |
| Y[Aib]QGTFTSDYSKALDEKAAKEFVNWLLDQHPSSGQPPPSC (bridge 16-20) [triple agonist of SEQ ID NO: 101] | 23.2% | 13.9% | 40.1% |
| [Acetyl(2-(4-imidazolyl))][Aib]EGTFTSDYSIAMDEIHQKDFVNWLLAQKC (bridge 16-20; not fully specified) [triple agonist of SEQ ID NO: 90] | 7.4% | < 0.1% | < 0.1% |
| H[Aib]QGTFTSDVSKYLDGQAAQEFVAWLLAGC [triple agonist of SEQ ID NO: 9] | 32.1% | 0.13% | < 0.1% |
| Y[Aib]QGTFTSDYSKALDEKAAKEFVQWLLDQHPSSGQPPPSC (bridge 16-20) [triple agonist of SEQ ID NO: 100] | 42.2% | 12.7% | 118% |
| H[Aib]QGTFTSDVSKYLDGQAAQEFVAWLLAGGGPSSGAPPPSC (not fully specified) [triple agonist of SEQ ID NO: 10] | 46% | < 0.1% | < 0.1% |

Reference: US20230355720A1, “PHARMACEUTICAL COMPOSITION FOR PREVENTING OR TREATING BONE DISEASES, COMPRISING TRIPLE AGONIST OR CONJUGATE THEREOF HAVING ACTIVITY WITH RESPECT TO ALL OF GLUCAGON, GLP-1 AND GLP RECEPTORS” (HANMI PHARM. CO., LTD., priority 2020, published 2023)
